One may read the stoichiometry N as the number of molecules, sites or subunits per partner or assembly. The term Kd denotes the concentration at which binding is half-saturated.

This is an account of results in PMC2998434, “Domain Swapping in Allosteric Modulation of DNA Specificity” (PLoS Biology, 2010).

Residue numbers refer to the chain shown, from its start.

Data set [1] deals with the molecule itself. Briefly: crystal structure; SgrAI with self-complementary 17-mer cognate DNA (1:2 SgrAI dimer:DNA duplex) and Ca2+; 14% PEG 4K, 0.1 M imidazole pH 6.5, 0.15 M NaCl, 0.05 M CaCl2, 17°C; two DNA bound dimers form a domain swapped tetramer (N counts subunits).
Another data set deals with T1, SgrAI P27G (UniProt Q9F6L0 1-339, P27G).
T1 sequence: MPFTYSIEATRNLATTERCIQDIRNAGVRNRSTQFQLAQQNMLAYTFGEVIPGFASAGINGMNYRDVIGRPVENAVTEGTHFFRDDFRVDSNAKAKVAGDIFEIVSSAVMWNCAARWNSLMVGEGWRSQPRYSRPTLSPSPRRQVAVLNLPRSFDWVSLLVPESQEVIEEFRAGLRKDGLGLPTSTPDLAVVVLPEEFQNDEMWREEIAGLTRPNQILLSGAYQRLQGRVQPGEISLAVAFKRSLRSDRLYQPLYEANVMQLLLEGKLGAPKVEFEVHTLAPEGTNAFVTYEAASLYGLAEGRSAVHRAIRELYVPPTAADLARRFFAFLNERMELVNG
Briefly: fluorescence polarization anisotropy; 10 mM Ca2+; FPA: 20 mM Tris-OAc pH 8.0, 50 mM KOAc, 10 mM Ca(OAc)2, 1 mM DTT, 10% glycerol, 4 C, 1 nM DNA; native PAGE: same binding buffer, 1 uM SgrAI, 30 min at 4 C, gel. The conditions noted are these: protein: recombinant, chain copies: 2. A general note: In fluorescence polarisation assays a small probe gives low polarisation when free and higher when bound to something large.

In a further data set the target is T2, SgrAI P27W (UniProt Q9F6L0 1-339, P27W).
T2 sequence: T1 sequence with G27W
Described as above. The conditions noted are these: protein: recombinant, chain copies: 2.

The next data set has as its target T3, SgrAI wild type (UniProt Q9F6L0 1-339).
T3 sequence: T1 sequence with G27P
Put plainly: X-ray crystal structure, 2.03 A; 50 mM CaCl2; two Ca2+ per active site; domain-swapped tetramer with two duplexes; FPA: 20 mM Tris-OAc pH 8.0, 50 mM KOAc, 10 mM Ca(OAc)2, 1 mM DTT, 10% glycerol, 4 C, 1 nM DNA; native PAGE: same binding buffer, 1 uM SgrAI, 30 min at 4 C, gel. The conditions noted are these: protein: recombinant; chain copies: 2; 5' overhang 1 nt (A) at each end; self-complementary, 2 strand copies.

[2] abbreviates: label: 5' HEX on both strands (FPA), 5' 32P (native gel), blunt, self-complementary, 2 strand copies.
Setting [3] is: label: 5' FLO on top strand only.

B1: SgrAI restriction endonuclease, wild type (enzyme, Streptomyces griseus)
chain: PFTYSIEATRNLATTERCIQDIRNAPVRNRSTQFQLAQQNMLAYTFGEVIPGFASAGINGMNYRDVIGRPVENAVTEGTHFFRDDFRVDSNAKAKVAGDIFEIVSSAVMWNCAARWNSLMVGEGWRSQPRYSRPTLSPSPRRQVAVLNLPRSFDWVSLLVPESQEVIEEFRAGLRKDGLGLPTSTPDLAVVVLPEEFQNDEMWREEIAGLTRPNQILLSGAYQRLQGRVQPGEISLAVAFKRSLRSDRLYQPLYEANVMQLLLEGKLGAPKVEFEVHTLAPEGTNAFVTYEAASLYGLAEGRSAVHRAIRELYVPPTAADLARRFFAFLNERMELVNG
notes: the structure legends name residues 1-24 (swapping domain), 25-30 (hinge loop) and 31-339; residues 1-339 are named for the structure; also called WT SgrAI; wild type SgrAI dimer
For the molecule B1, in data set [1], the “stoichiometry N” value is 4.

B2: 18-1 (primary site) (dsDNA)
DNA 1: AAGTCCACCGGTGGACTT
DNA 2: AAGTCCACCGGTGGACTT
Regarding B2, the dissociation constant (Kd) with SgrAI P27G (setting [2]) is 17 ± 5 nM; with SgrAI P27W (setting [2]) it was 4 ± 0.8 nM.

B3: PCP (precleaved primary site DNA) (dsDNA)
DNA 1: GATGCGTGGGTCTTCACA
DNA 2: CCGGTGTGAAGACCCACGCATC
modifications: 5' phosphate at the cleavage site
For the molecule B3, the Kd amounted to 5 ± 2 nM with SgrAI P27G (setting [3]) and 9 ± 2 nM with SgrAI P27W (setting [3]).

B4: 17-2 cognate (crystal DNA) (dsDNA)
DNA 1: AAGTCCACCGGTGGACT
DNA 2: AAGTCCACCGGTGGACT
In the case of B4, the binding result in the data set with SgrAI wild type is “binds”.
